The target of one series is T1, MpGSMT (Methanohalophilus portucalensis, UniProt F6KV61).
T1 construct: gene gsmt; full length, 263 residues, 29,040 Da calculated (35 kD on SDS-PAGE)
T1 sequence (F6KV61 1-263): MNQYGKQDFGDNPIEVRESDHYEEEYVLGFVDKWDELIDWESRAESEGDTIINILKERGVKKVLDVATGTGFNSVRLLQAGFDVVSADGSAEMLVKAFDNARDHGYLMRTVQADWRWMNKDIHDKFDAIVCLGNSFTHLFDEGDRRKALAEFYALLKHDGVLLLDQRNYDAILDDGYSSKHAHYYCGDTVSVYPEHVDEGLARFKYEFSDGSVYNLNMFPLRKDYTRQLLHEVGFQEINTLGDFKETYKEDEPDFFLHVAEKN
The series is described as follows: radiometric acid-washed charcoal methyltransferase assay. It is filed as biochemical. An excerpt: radiometric acid-washed charcoal methyltransferase assay on MpGSMT

A further series addresses T2, MpSDMT (Methanohalophilus portucalensis, UniProt F6KV62).
T2 construct: gene SAMN06264941_0526; full length, 278 residues, 30,690 Da calculated (38 kD on SDS-PAGE)
T2 sequence (F6KV62 1-278): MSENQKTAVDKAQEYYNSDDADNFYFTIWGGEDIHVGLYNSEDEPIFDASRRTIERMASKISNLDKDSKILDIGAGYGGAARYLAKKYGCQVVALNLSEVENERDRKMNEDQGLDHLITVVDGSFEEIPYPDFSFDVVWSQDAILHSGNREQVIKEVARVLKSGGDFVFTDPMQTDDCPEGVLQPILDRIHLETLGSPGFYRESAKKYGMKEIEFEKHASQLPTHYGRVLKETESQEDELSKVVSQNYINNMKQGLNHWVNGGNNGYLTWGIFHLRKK
The series is described as above. The format is biochemical. The settings on record: read-out: I50 AdoHcy. An excerpt:
radiometric acid-washed charcoal methyltransferase assay on MpSDMT

Substrate in the series “purified protein”: C[S+](CC[C@H](N)C(=O)O)C[C@H]1O[C@@H](n2cnc3c(N)ncnc32)[C@H](O)[C@@H]1O
Nature of the series: purified protein. The following applies: TES pH 7.3, 37 °C, labelled compound.

Series [1] concerns the molecule itself. The series is described as follows: AUC; sedimentation velocity, 0.70 mg/ml MpGSMT in 0.1 M TES buffer (pH 7.3) with 0 to 2.0 M KCl, 20°C, 42,000 rpm, SEDFIT 9.4c; monomer to dimer.
Substrate in series [2]: CN(C)CC(=O)O
The series is described as follows: radiometric acid-washed charcoal methyltransferase assay. The following applies: DMT activity, co-substrate AdoMet, TES pH 7.3, 37 °C (text b54 prints a different Km, equal to that of the native enzyme in the table). It is filed as biochemical, Methanohalophilus portucalensis.

Substrate in series [3]: CNCC(=O)O
The description is as above. It is filed as biochemical, Methanohalophilus portucalensis. The following applies: SMT activity, co-substrate AdoMet, TES pH 7.3, 37 °C (text b54 prints a different Km, equal to that of the native enzyme in the table).

With `C[N+](C)(C)CC(=O)[O-]` [betaine], the activity at 1 M at MpGSMT (read-out: Relative activity (%) / Betaine / 1 M) was found to be 30%.

For `Nc1ncnc2c1ncn2[C@@H]1O[C@H](CSCC[C@H](N)C(=O)O)[C@@H](O)[C@H]1O` [AdoHcy], the values for the IC50 at MpSDMT and on MpGSMT (read-out: I50 AdoHcy) were 150 µM and 70 µM, respectively.

B1: Methanohalophilus portucalensis glycine sarcosine methyltransferase (recombinant MpGSMT) (enzyme, UniProt F6KV61 1-263, looked up)
chain: MNQYGKQDFGDNPIEVRESDHYEEEYVLGFVDKWDELIDWESRAESEGDTIINILKERGVKKVLDVATGTGFNSVRLLQAGFDVVSADGSAEMLVKAFDNARDHGYLMRTVQADWRWMNKDIHDKFDAIVCLGNSFTHLFDEGDRRKALAEFYALLKHDGVLLLDQRNYDAILDDGYSSKHAHYYCGDTVSVYPEHVDEGLARFKYEFSDGSVYNLNMFPLRKDYTRQLLHEVGFQEINTLGDFKETYKEDEPDFFLHVAEKN
notes: glycine sarcosine methyltransferase (GSMT) of Methanohalophilus portucalensis strain FDF1T; complete Mpgsmt gene, 792 bp, 263 amino acids, GenBank HQ634197; The tag is inferred from the vector and the Ni Sepharose purification; source: E. coli BL21(DE3)RIL, pET28a, purified (Ni Sepharose 6 Fast Flow)
Usually Km stands for the substrate concentration at which the rate is half of its maximum. In general, stoichiometry N refers to the number of molecules, sites or subunits per partner or assembly. Turning to B1, the Km in the series “purified protein” (GMT activity, methyl acceptor glycine) stood at 8260 µM. The “stoichiometry N” value in series [1] stood at 2.

B2: MpSDMT (Methanohalophilus portucalensis FDF-1) (protein)
chain: MSENQKTAVDKAQEYYNSDDADNFYFTIWGGEDIHVGLYNSEDEPIFDASRRTIERMASKISNLDKDSKILDIGAGYGGAARYLAKKYGCQVVALNLSEVENERDRKMNEDQGLDHLITVVDGSFEEIPYPDFSFDVVWSQDAILHSGNREQVIKEVARVLKSGGDFVFTDPMQTDDCPEGVLQPILDRIHLETLGSPGFYRESAKKYGMKEIEFEKHASQLPTHYGRVLKETESQEDELSKVVSQNYINNMKQGLNHWVNGGNNGYLTWGIFHLRKK
notes: full length, 278 residues, 30,690 Da calculated (38 kD on SDS-PAGE)
As to B2, the Km in the series “purified protein” (SMT activity, methyl acceptor sarcosine) was found to be 500 µM; in series [2], 660 µM; in series [3], 660 µM.

The record behind these values is article PMC3176816, “Characterization and Regulation of the Osmolyte Betaine Synthesizing Enzymes GSMT and SDMT from Halophilic Methanogen Methanohalophilus portucalensis” (PLoS ONE, 2011).
